Test results from patent US6991794B1, “Progenitor cell preservation factors and methods for and products of their use” (ImClone Systems Incorporated, priority 1997, dated 2006).
Read-outs that look alike come from different tables or passages of the source.

Target: T1, murine extracellular domain of the Flt3 receptor fused to the transmembrane and intracellular domains of the human Fms (UniProt P07333+Q00342, A795S/A899S/C564L/C654D/C793H/C831G/D601N/D652H/D673E/D898N/DEL545-556/DEL576-597/DEL711-780/E609N/E612Q/E649S/E789R/E803A/E806A/E865D/F571P/F692T/F788L/F807S/G637D/G866C/H565Y/H671Q/H824N/I560L/I563L/I633L/I640L/I867V/I870V/INS558VACMSIMALLLL/INS573QVRWKII/INS599GNSYTFIDPTQLP/INS709AMLGPSLSPGQDPEGGVDYKNIHLEKKYVRRDSGFSSQGVDTYVEMRPVSTSSNDSFSEQDLD/K569Q/K650T/K800Q/K826H/K871Q/L602E/L684H/L690V/L783G/L815V/L840M/L863I/M626V/M665I/N627E/N784R/N900K/P896L/Q570K/Q641K/R572K/R624K/R708A/R848K/S619A/S634G/S639V/S653A/S685G/S706R/S809N/S841N/S844N/T636E/T667S/T787E/V561L/V616T/V638A/V785P/V811I/V822L/V828A/V846I/V889L/Y631F/Y689L/Y703F/Y796S)
T1 construct: consisting of the murine extracellular domain of the Flt3 receptor fused to the transmembrane and intracellular domains of the human Fms; expressed in transfected cells; host or cells: NIH 3T3 (mFlt3/Fms 3T3 cell line, provided by Dr. Ihor Lemischka)
T1 sequence (Q00342+P07333 with tags, fused parts or gaps Q00342:DEL545-556/Q00342:INS558VACMSIMALLLL/Q00342:I560L/Q00342:V561L/Q00342:I563L/Q00342:C564L/Q00342:H565Y/Q00342:K569Q/Q00342:Q570K/Q00342:F571P/Q00342:R572K/Q00342:INS573QVRWKII/Q00342:DEL576-597/Q00342:INS599GNSYTFIDPTQLP/Q00342:D601N/Q00342:L602E/Q00342:E609N/Q00342:E612Q/Q00342:V616T/Q00342:S619A/Q00342:R624K/Q00342:M626V/Q00342:N627E/Q00342:Y631F/Q00342:I633L/Q00342:S634G/Q00342:T636E/Q00342:G637D/Q00342:V638A/Q00342:S639V/Q00342:I640L/Q00342:Q641K/Q00342:E649S/Q00342:K650T/Q00342:D652H/Q00342:S653A/Q00342:C654D/Q00342:M665I/Q00342:T667S/Q00342:H671Q/Q00342:D673E/Q00342:L684H/Q00342:S685G/Q00342:Y689L/Q00342:L690V/Q00342:F692T/Q00342:Y703F/Q00342:S706R/Q00342:R708A/Q00342:INS709AMLGPSLSPGQDPEGGVDYKNIHLEKKYVRRDSGFSSQGVDTYVEMRPVSTSSNDSFSEQDLD/Q00342:DEL711-780/Q00342:L783G/Q00342:N784R/Q00342:V785P/Q00342:T787E/Q00342:F788L/Q00342:E789R/Q00342:C793H/Q00342:A795S/Q00342:Y796S/Q00342:K800Q/Q00342:E803A/Q00342:E806A/Q00342:F807S/Q00342:S809N/Q00342:V811I/Q00342:L815V/Q00342:V822L/Q00342:H824N/Q00342:K826H/Q00342:V828A/Q00342:C831G/Q00342:L840M/Q00342:S841N/Q00342:S844N/Q00342:V846I/Q00342:R848K/Q00342:L863I/Q00342:E865D/Q00342:G866C/Q00342:I867V/Q00342:I870V/Q00342:K871Q/Q00342:V889L/Q00342:P896L/Q00342:D898N/Q00342:A899S/Q00342:N900K): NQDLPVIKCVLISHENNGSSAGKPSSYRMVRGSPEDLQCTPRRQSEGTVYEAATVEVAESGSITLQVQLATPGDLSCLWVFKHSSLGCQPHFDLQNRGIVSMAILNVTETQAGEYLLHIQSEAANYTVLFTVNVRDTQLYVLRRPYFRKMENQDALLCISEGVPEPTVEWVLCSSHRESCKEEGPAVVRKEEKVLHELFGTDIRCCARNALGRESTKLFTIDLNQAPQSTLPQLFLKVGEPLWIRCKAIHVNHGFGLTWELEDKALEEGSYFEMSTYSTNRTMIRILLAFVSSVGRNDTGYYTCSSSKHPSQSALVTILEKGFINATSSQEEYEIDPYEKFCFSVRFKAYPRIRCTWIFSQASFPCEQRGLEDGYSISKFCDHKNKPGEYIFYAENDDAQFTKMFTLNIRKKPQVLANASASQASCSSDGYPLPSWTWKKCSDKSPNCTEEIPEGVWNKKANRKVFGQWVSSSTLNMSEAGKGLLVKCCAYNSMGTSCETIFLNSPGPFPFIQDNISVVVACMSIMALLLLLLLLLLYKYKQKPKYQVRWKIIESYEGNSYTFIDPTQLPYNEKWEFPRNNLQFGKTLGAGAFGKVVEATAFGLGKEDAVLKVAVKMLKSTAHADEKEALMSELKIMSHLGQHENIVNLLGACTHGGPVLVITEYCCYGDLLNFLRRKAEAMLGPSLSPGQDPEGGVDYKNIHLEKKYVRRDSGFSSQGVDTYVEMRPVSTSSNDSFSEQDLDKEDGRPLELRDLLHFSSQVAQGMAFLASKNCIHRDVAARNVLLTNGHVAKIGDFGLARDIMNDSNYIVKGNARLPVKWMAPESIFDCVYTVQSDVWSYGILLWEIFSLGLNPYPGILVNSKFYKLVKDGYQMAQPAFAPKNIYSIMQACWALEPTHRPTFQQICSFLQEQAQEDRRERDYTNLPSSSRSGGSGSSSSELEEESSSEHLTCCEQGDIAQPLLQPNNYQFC
Assay: mFlt3/Fms 3T3 biological screening assay (XTT)
Assay type: cell-based
Description: A biological screening assay to search for novel stimulators of the Flt3 receptor was developed using NIH 3T3 cells transfected with expression vectors containing cDNA of murine and human Flt3 and the related Fms receptor. The mFlt3/Fms 3T3 cell line is a 3T3 cell line transfected with nucleic acid encoding a fusion protein consisting of the murine extracellular domain of the Flt3 receptor fused to the transmembrane and intracellular domains of the human Fms (provided by Dr. Ihor Lemischka, Princeton University, Princeton, N.J.). The Stk 3T3 cell line is a 3T3 cell line transfected with the full-length human Flt3 receptor (provided by Dr. Donald Small, Johns Hopkins University, Baltimore, Md.). The human FMS 3T3 cell line is a 3T3 cell line transfected with the full-length human Fms receptor (provided by Dr. Charles Sherr, Saint Jude Children's Research Hospital, Memphis, Tenn. Parent 3T3 cells were purchased from American Type Culture Collection (“ATCC”; Manassas, Va.). Receptor-transfected cells contained Neo resistance genes and were maintained in medium containing 750 µg/ml of G418 (Life Technologies, Rockville, Md.).
To create factor-dependence for receptor-transfected 3T3 cells, growth conditions were compromised to permit only ligands to rescue cells from death. To do this, 3T3 cell lines were assayed in 96 well plates (Becton Dickinson Labware, Lincoln Park, N.J.) containing 3,000 cells in 100 μL of serum-free medium consisting of 10% AIMV (Life Technologies) and 90% DMEM. In each experiment, samples were serially diluted two-fold across rows starting at a 1:10 dilution. Viable cells were quantitated after 3-5 days by XTT (2,3-bis[Methoxy-4-nitro-5sulfophenyl]-2H-tetrazolium-5 carboxanilide inner salt) (Sigma, St. Louis, Mo.) (Roehm et al., supra). Relative activity (units/ml) and specific activity (units/mg) are defined as the reciprocal dilution at which half-maximal stimulation of cells was detected.

B1: Pv-FRIL: FRIL family mannose-binding lectin from Phaseolus vulgaris (red kidney bean), SEQ ID NO: 6 (protein)
chain: AQSLSFNFTKFDLDQKDLIFQGDATSTNNVLQLTKLDSGGNPVGASVGRVLFSAPFHLWENSMAVSSFETNLTIQISTPHPYYAADGFAFFLAPHDTVIPPNSWGKFLGLYSNVFRNSPTSENQSFGDVNTDSRVVAVEFDTFPNANIDPNYRHIGIDVNSIKSKETARWEWQNGKTATARISYNSASKKSTVTTFYPGMEVVALSHDVDLHAELPEWVRVGLSASTGEEKQKNTIISWSFTSSLKNNEVKEPKEDMYIANVVRSYTWINDVLSYISNKMYDALNNNHKYVRCSTCMLFMKKK
- response of mFlt3/Fms 3T3 cells: responded in a dose dependent manner
- response of mFlt3/Fms 3T3 cells (presence of rhIL1): respond to FRIL in the presence of rhIL1
